{
  "source": "patent US20230052680A1",
  "key": {"[1]": {"target": "human FGFR2b on cells (human) (UniProt P21802)", "assay": "flow cytometry on FGFR2b expressing KATOIII cells"}, "[2]": {"target": "human FGFR2b (beta)-Fc (human) (UniProt P21802)", "assay": "SPR (Biacore T200); hFGFR2b-Fc amine-coupled to CM5 chip, antibody injected at 0-200 nM"}, "[3]": {"target": "recombinant human FGFR2b-Fc (murine Fc) (human) (UniProt P21802)", "assay": "ELISA, plate coated with 0.1 ug/ml human FGFR2b-Fc, anti-human IgG HRP detection"}, "[4]": {"target": "human FGFR2b (beta)-Fc (human) (UniProt P21802)", "assay": "surface plasmon resonance (Biacore T200), hFGFR2b-Fc amine-coupled to a CM5 chip, antibody injected"}, "[5]": {"target": "human FGFR2b on cells (human) (UniProt P21802)", "assay": "flow cytometry on KATOIII cells; sample name as printed 'KATOIII_36C 01nM_023.fcs' (no decimal point printed)"}, "[6]": {"target": "human FGFR2b on cells (human) (UniProt P21802)", "assay": "flow cytometry on KATOIII cells; sample name as printed 'KATOIII_36C 05nM_022.fcs' (no decimal point printed)"}, "[7]": {"target": "human FGFR2b on cells (human) (UniProt P21802)", "assay": "flow cytometry on KATOIII cells; sample name as printed 'KATOIII_36C 0004nM_025.fcs' (no decimal point printed)"}, "[8]": {"target": "human FGFR2b on cells (human) (UniProt P21802)", "assay": "flow cytometry on KATOIII cells; sample name as printed 'KATOIII_36C 002 nM_024.fcs' (no decimal point printed)"}, "[9]": {"target": "human FGFR2b on cells (human) (UniProt P21802)", "assay": "flow cytometry on KATOIII cells; sample name as printed 'KATOIII_36C 00009nM_026.fcs' (no decimal point printed)"}, "[10]": {"target": "human FGFR2b (beta)-Fc (human) (UniProt P21802)", "assay": "ELISA, plate coated with HuFGFR2b"}},
  "data": [
    {"binder": "Ab 36c (antibody, V domains shown) VH: QPYLQQSGAELVRPGASVKMSCKASGYTFTSYNMHWVKQTPRQGLEWIGAIFPENGDTSYNQKFKGKATLTVDKSSSTAYMQLSSLTSEDSAVYFCARGGFDYWGQGTTLTVSS VL: DIVMTQSHKFMSTSVGDRVSITCKASQDVSTNVAWYQQKPGQSPKLLIFSASYRYTGVPDRFAGSGSGTDFTFTISSVQAEDLAVYYCQQHYSSPYTFGGGTKLDIK", "values": [
      {"measurement": "EC50", "setting": "[1]", "result": 8000, "unit": "pM"},
      {"measurement": "Kd", "setting": "[2]", "result": 187, "unit": "pM"},
      {"measurement": "EC50 (read off the curve)", "setting": "[3]", "result": 300, "unit": "pM"},
      {"measurement": "Kd", "setting": "[4]", "result": 189, "unit": "pM"},
      {"measurement": "koff", "setting": "[4]", "result": "2.44e-05", "unit": "s⁻¹"},
      {"measurement": "kon", "setting": "[4]", "result": 129000, "unit": "M⁻¹ s⁻¹"},
      {"measurement": "Mean : FITC-A", "setting": "[5]", "result": 455},
      {"measurement": "Mean : FITC-A", "setting": "[6]", "result": 1800},
      {"measurement": "Mean : FITC-A", "setting": "[7]", "result": 128},
      {"measurement": "Mean : FITC-A", "setting": "[8]", "result": 199},
      {"measurement": "Mean : FITC-A", "setting": "[9]", "result": 121}
    ]},
    {"binder": "Ab 36 (antibody, V domains shown) VH: QPYLQQSGAELVRPGASVKMSCKASGYTFTSYNMHWVKQTPRQGLEWIGAIFPENGDTSYNQKFKGKATLTVDKSSSTAYMQLSSLTSEDSAVYFCARGGFDYWGQGTTLTVSS VL: DIVMTQSHKFMSTSVGDRVSITCKASQDVSTNVAWYQQKPGQSPKLLIFSASYRYTGVPDRFAGSGSGTDFTFTISSVQAEDLAVYYCQQHYSSPYTFGGGTKLDIK", "values": [
      {"measurement": "EC50 (read off the curve)", "setting": "[10]", "result": 200, "unit": "pM"}
    ]},
    {"binder": "Ab hu36-2 (antibody, human IgG1, V domains shown) VH: QVQLVQSGAEVKKPGSSVKVSCKASGYTFTSYNMHWVRQAPGQGLEWIGAIFPENGDTSYNQKFKGRATITADKSTSTAYMELSSLRSEDTAVYYCARGGFDYWGQGTTVTVSS VL: DIQMTQSPSSLSASVGDRVTITCKASQDVSTNVAWYQQKPGKAPKLLIFSASYRYTGVPSRFSGSGSGTDFTFTISSLQPEDIATYYCQQHYSSPYTFGQGTKLEIK", "values": [
      {"measurement": "Kd", "setting": "[2]", "result": 189, "unit": "pM"},
      {"measurement": "Kd", "setting": "[4]", "result": 187, "unit": "pM"},
      {"measurement": "koff", "setting": "[4]", "result": "2.39e-05", "unit": "s⁻¹"},
      {"measurement": "kon", "setting": "[4]", "result": 128000, "unit": "M⁻¹ s⁻¹"}
    ]}
  ]
}
